The target in data set [1] is T1, Flag tagged ORC5 (UniProt O43913).
T1 sequence: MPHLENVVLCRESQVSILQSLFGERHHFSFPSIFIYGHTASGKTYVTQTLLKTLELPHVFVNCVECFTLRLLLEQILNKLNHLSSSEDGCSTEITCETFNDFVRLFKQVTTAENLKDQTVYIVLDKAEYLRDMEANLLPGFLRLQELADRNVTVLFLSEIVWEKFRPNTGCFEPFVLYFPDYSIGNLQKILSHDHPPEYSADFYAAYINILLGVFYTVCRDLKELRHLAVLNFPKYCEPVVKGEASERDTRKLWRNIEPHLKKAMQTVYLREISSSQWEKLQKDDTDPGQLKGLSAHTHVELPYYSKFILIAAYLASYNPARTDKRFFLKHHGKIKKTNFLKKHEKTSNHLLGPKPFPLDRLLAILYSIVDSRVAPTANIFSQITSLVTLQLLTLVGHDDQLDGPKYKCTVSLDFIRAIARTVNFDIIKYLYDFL

For data set [2], the target named is T2, Flag tagged ORC5, O43913.
T2 chain: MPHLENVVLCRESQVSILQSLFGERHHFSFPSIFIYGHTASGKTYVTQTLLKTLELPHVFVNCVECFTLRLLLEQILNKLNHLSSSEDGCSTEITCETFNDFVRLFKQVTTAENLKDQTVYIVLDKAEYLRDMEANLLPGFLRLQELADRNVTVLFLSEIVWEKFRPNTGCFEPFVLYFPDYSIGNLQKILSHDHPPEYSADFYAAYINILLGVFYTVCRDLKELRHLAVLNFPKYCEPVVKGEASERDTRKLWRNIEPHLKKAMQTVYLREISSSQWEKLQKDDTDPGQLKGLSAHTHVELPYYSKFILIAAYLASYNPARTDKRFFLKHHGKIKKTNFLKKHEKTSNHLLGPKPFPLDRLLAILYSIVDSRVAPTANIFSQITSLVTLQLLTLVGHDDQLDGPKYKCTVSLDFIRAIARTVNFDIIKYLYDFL

As to Xenopus Myc6-tagged Obi1 WT, the “ubiquitination of Flag-ORC5 (high-molecular weight ubiquitin adducts after anti-Flag IP)” value in data set [1] is “both human and xenopus Obi1, sharing 35% identity of their amino acid sequence, are able to ubiquitinate ORC5”.

B1: human Myc6-tagged Obi1 WT (protein)
chain: MAQTVQNVTLSLTLPITCHICLGKVRQPVICINNHVFCSICIDLWLKNNSQCPACRVPITPENPCKEIIGGTSESEPMLSHTVRKHLRKTRLELLHKEYEDEIDCLQKEVEELKSKNLSLESQIKTILDPLTLVQGNQNEDKHLVTDNPSKINPETVAEWKKKLRTANEIYEKVKDDVDKLKEANKKLKLENGGLVRENLRLKAEVDNRSPQKFGRFAVAALQSKVEQYERETNRLKKALERSDKYIEELESQVAQLKNSSEEKEAMNSICQTALSADGKGSKGSEEDVVSKNQGDSARKQPGSSTSSSSHLAKPSSSRLCDTSSARQESTSKADLNCSKNKDLYQEQVEVMLDVTDTSMDTYLEREWGNKPSDCVPYKDEELYDLPAPCTPLSLSCLQLSTPENRESSVVQAGGSKKHSNHLRKLVFDDFCDSSNVSNKDSSEDDISRSENEKKSECFSSPKTGFWDCCSTSYAQNLDFESSEGNTIANSVGEISSKLSEKSGLCLSKRLNSIRSFEMNRTRTSSEASMDAAYLDKISELDSMMSESDNSKSPCNNGFKSLDLDGLSKSSQGSEFLEEPDKLEEKTELNLSKGSLTNDQLENGSEWKPTSFFLLSPSDQEMNEDFSLHSSSCPVTNEIKPPSCLFQTEFSQGILLSSSHRLFEDQRFGSSLFKMSSEMHSLHNHLQSPWSTSFVPEKRNKNVNQSTKRKIQSSLSSASPSKATKS
On to B1, for which, in data set [2], the “polyubiquitination of Flag-ORC5 (HA-ubiquitin adducts after anti-Flag IP)” value is given as “only the full length Obi1 protein is able to polyubiquitinate ORC5”; the “ubiquitination of Flag-ORC5 (high-molecular weight ubiquitin adducts after anti-Flag IP)” value is “both human and xenopus Obi1, sharing 35% identity of their amino acid sequence, are able to ubiquitinate ORC5”.

These data come from patent US20160122742A1 (published 2016).
